Measurements from US20250027068.

biological target: pooled human IgG (human IgG1, 2, 3 and 4)

| Protein | Enzyme Activity Endpoint Assay: Fab′2 | Enzyme Activity Endpoint Assay: Fc | Enzyme Activity Endpoint Assay: IgG | Enzyme Activity Endpoint Assay: scIgG |
| --- | --- | --- | --- | --- |
| PRT-471 (protein) MVTSVWTKGVTPPTDFIYGEDVLHAPYKAGQGWYDITKAFDGGDDLLCGAATAGNMLHWWFDQNKEQIENYLKKHPEKQKINFNGEQMFDVKEAIDTKDSQTNSELFNYFKEKAFPYLSTKHLGVFPDHVIDMFINGYRLSLTNHGPTPVKRGSKDPRGGIFDAVFTRGDQSKLLTNRHDFKEKTLKEISDLIKQELTEGKALGISHTYANVRINHVINLWGADFDAEGNLEAIYVTDSDSNASIGMKKYFVGVNSNGKVAISAKEIEEDNIGAQVLGLFTLSTGQDIWNQTNLEHHHHHH | 1110 ng/µL | 357 ng/µL | 0 ng/µL | 0 ng/µL |
| PRT-493 (protein) MVTSVWTKGVTPPTNFTYGEDVLHAPYVANQGWYDITKTFNGKDNLLCGAATAGNMLHWWFDQNKEQIENYLKKHPEKQKIIFNNQELFDLKAAIDTKDSQLDSKLFEYFKEKAFPYLSTKHLGVFPDHVIDMFINGYRLSLTNHGPTPVKRGSKDKRGGIFDAVFTRGVQSKLLTNRHDLKNKTLKEISDLIKQELTEGKALGISHTYANVRINHVINLWGADFDAEGNLEAIYVTDSDTNASIGMKKYFVGVNSNGKVAISAKEIEEDNIGAQVLGLFTLSTGQDIWNQTNLEHHHHHH | 1170 ng/µL | 412 ng/µL | 0 ng/µL | 0 ng/µL |
| PRT-464 (protein) MVTSVWTKGVTPPANFTQGEDVFHAPYVANQGWYDITKAFDGGDDLLCGAATAGNMLHWWFDQNKDQIERYLKEHPEKQKINFNGEQMFDVKEAIDTKDSQTNSELFNYFKEKAFPYLSTKHLGVFPDHVLDMFINGYRLSLTNHGPTPVKEGSKDPRGGIFDAVFTRGDQSKLLTSRHDLKNKTLKEISDLIKQELTEGKALGLSHTYANVRINHVINLWGADFDSEGNLKAIYVTDSDSNASIGMKKYFVGVNSAGKVAISAKEIKEDNIGAQVLGLFTLSTGQDIWNQTNLEHHHHHH | 0 ng/µL | 58 ng/µL | 0 ng/µL | 0 ng/µL |
| PRT-487 (protein) MVTSVWTKGVTPPTDFIKGEDVFHAPYKAGQGWYDITKTFNGKDNLLCGAATAGNMLHWWFDQNKDQIERYLKEHPEKQKIIFNNQELFDLKAAIDTKDSQTDSKLFEYFKEKAFPYLSTKHLGVFPDHVLDMFINGYRLSLTNHGPTPVKEGSKDKRGGIFDAVFTRGVQSKLLTSRHDLKNKTLKEISDLIKQELTEGKALGLSHTYANVRINHVINLWGADFDSEGNLKAIYVTDSDTNASIGMKKYFVGVNSAGKVAISAKEIKEDNIGAQVLGLFTLSTGQDIWNQTNLEHHHHHH | 0 ng/µL | 22 ng/µL | 0 ng/µL | 0 ng/µL |
| PRT-514 (protein) MITSVWTKGVTPPTDFIKGEDVFHAPYKAGQGWYDITKAFDGGDDLLCGAATAGNMLHWWFDQNKEEIEAYLKKHPEKQKIMFGDQELLDVRKVINTKDSQTNSALFNYFKDKAFPNLSARRLGVMPDLVLDMFINGYYLNVYKTQTTDVNRQEQTKDRRGGIFDAVFGRGDQTKLLTERHDFKEKTLNEISQLIKQELTEGKALGLSHTYANVRINHVINLWGADFDAEGNLEAIYVTDSDSNASIGMKKYFVGVNSAGKVAISAKEIKEDNIGAQVLGLFTLSTGQKIWNKTNLEHHHHHH | 64 ng/µL | 37 ng/µL | 0 ng/µL | 0 ng/µL |
